Measured values from patent US20190241669A1 (published 2019).
Positions count from the first letter of the chain named.

B1: COMBO_Rd4_0.6nM_C21 (antibody, V domains shown)
VH: EVQLLESGGGLVQPGGSLRLSCAASGFTFSSYPMSWVRQAPGKGLEWVSAIGGSGGSLPYADSVKGRFTISRDNSKNTLYLQMNSLRAEDTAVYYCARYWPMDSWGQGTLVTVSS
VL: EIVLTQSPGTLSLSPGERATLSCRASQSVSSSYLAWYQQKPGQAPRLLMYDASIRATGIPDRFSGSGSGTDFTLTISRLEPEDFAVYYCQQYQSWPLTFGQGTKVEIK
notes: IgG
B2: C01_Rd4_6nM_C04 (antibody, V domains shown)
VH: B1 VH
VL: B1 VL with R24C, A25S, S32T, M49I, I54S, T57P, Q93S, S94A, W95F
notes: IgG
B3: A02_Rd4_6nM_C25 (antibody, V domains shown)
VH: B1 VH with P33A, S35N, G52S, G53D, L58R, P59W, D103T, S104P
VL: B1 VL with Q93L, S94D
notes: IgG
B4: A02_Rd4_6nM_C07 (antibody, V domains shown)
VH: B1 VH with P33A, S35N
VL: B1 VL with S31P, S32Y, Q93E, S94R
notes: IgG
B5: A02_Rd4_0.6nM_C10 (antibody, V domains shown)
VH: B1 VH with P33A, S35N, G52S, S54W
VL: B1 VL with S31A, S32Q, S94R
notes: IgG
B6: A02_Rd4_0.6nM_C03 (antibody, V domains shown)
VH: B1 VH with P33A, S35N, G52S, G53D, L58K, P59W, D103S, S104L
VL: B1 VL with Q93F, S94T
notes: IgG
B7: A02_Rd4_0.6nM_C13 (antibody, V domains shown)
VH: B1 VH with P33A, S35N, G52S, G53D, S57Y, L58R, P59Y, D103S, S104L
VL: B1 VL with L34W, Q93E
notes: IgG
B8: A02_Rd4_6nM_C08 (antibody, V domains shown)
VH: B1 VH with P33A, S35N, G52L, G53D, L58T, P59Y, D103S, S104P
VL: B1 VL with S31F, S32L, Q93G
notes: IgG
B9: C01_Rd4_0.6nM_C16 (antibody, V domains shown)
VH: B1 VH
VL: B1 VL with S32T, M49I, I54S, T57P, Q93S
notes: IgG
B10: A02_Rd4_6nM_C05 (antibody, V domains shown)
VH: B1 VH with P33A, S35N, G52F, G53A, L58T, P59Y, D103T, S104P
VL: B1 VL with S94R
notes: IgG
B11: A02_Rd4_0.6nM_C26 (antibody, V domains shown)
VH: B1 VH with P33A, S35N, G52L, G53M, L58T, P59Y, D103S, S104L
VL: B1 VL with R24G, A25P
notes: IgG
B12: C01_Rd4_0.6nM_C09 (antibody, V domains shown)
VH: B1 VH
VL: B1 VL with S32L, Y33F, M49I, I54S, T57P, Q93S, S94A
notes: IgG
B13: C01_Rd4_0.6nM_C27 (antibody, V domains shown)
VH: B1 VH
VL: B1 VL with S32T, M49I, I54S, T57P, Q93S, S94R
notes: IgG
B14: A02_Rd4_0.6nM_C09 (antibody, V domains shown)
VH: B1 VH with P33A, S35N, G52S, G53D, L58M, P59W, D103S, S104L
VL: B1 VL
notes: IgG
B15: C01_Rd4_0.6nM_C06 (antibody, V domains shown)
VH: B1 VH
VL: B1 VL with Q27E, S28A, S30P, S32T, M49I, I54S, T57P, Q93S, S94A, W95F
notes: IgG
B16: A02_Rd4_6nM_C19 (antibody, V domains shown)
VH: B1 VH with P33A, S35N, G52S, G53D, L58R, P59W, D103S, S104D
VL: B1 VL with S31V, S32L, Q93L, S94A
notes: IgG
B17: A02_Rd4_0.6nM_C01 (antibody, V domains shown)
VH: B1 VH with P33A, S35N, G52L, G53S, L58T, P59Y, S104I
VL: B1 VL with A25G, S26G
notes: IgG; also called P5AC1
B18: C01_Rd4_6nM_C24 (antibody, V domains shown)
VH: B1 VH
VL: B1 VL with S31P, S32E, M49I, I54S, T57P, Q93S, S94V
notes: IgG
B19: C01_Rd4_6nM_C10 (antibody, V domains shown)
VH: B1 VH
VL: B1 VL with S32V, M49I, I54S, T57P, Q93S, S94T
notes: IgG
B20: A02_Rd4_6nM_C03 (antibody, V domains shown)
VH: B1 VH with P33A, S35N, G52S, G53D, L58T, P59Y, S104I
VL: B1 VL with S31N, S32L, S94G
notes: IgG
B21: A02_Rd4_0.6nM_C06 (antibody, V domains shown)
VH: B1 VH with P33A, S35N, G52S, G53D, L58A, P59W, D103S, S104L
VL: B1 VL with S31V, S32L, S94R
notes: IgG
B22: A02_Rd4_6nM_C10 (antibody, V domains shown)
VH: B1 VH with P33A, S35N, G52S, G53D, L58C, P59W, D103T, S104P
VL: B1 VL with S30E, S31M, Q93A, S94H
notes: IgG
B23: A02_Rd4_6nM_C04 (antibody, V domains shown)
VH: B1 VH with P33A, S35N, G52M, G53S, S57P, P59Y, D103A, S104L
VL: B1 VL with S31A, S32L, S94V
notes: IgG
B24: C01_Rd4_6nM_C09 (antibody, V domains shown)
VH: B1 VH with I51T, G52V, L58I, P59G
VL: B1 VL with R24A, A25C, S32T, M49I, I54S, T57P, Q93S, S94A
notes: IgG
B25: C01_Rd4_0.6nM_C03 (antibody, V domains shown)
VH: B1 VH
VL: B1 VL with Q27C, S28D, S32T, M49I, I54S, T57P, Q93M, S94R, W95S
notes: IgG
B26: C01_Rd4_6nM_C20 (antibody, V domains shown)
VH: B1 VH
VL: B1 VL with S31P, S32L, M49I, I54S, T57P, Q93S, S94A, W95F
notes: IgG
B27: C01_Rd4_6nM_C12 (antibody, V domains shown)
VH: B1 VH with S57W, L58S, P59Y
VL: B1 VL with R24W, A25L, S32T, M49I, I54S, T57P, Q93S, S94E
notes: IgG; also called PC1C12
B28: A02_Rd4_6nM_C23 (antibody, V domains shown)
VH: B1 VH with P33A, S35N, G52S, G53D, L58G, P59W, D103S, S104L
VL: B1 VL with S31V, S32E, Q93A, S94R
notes: IgG
B29: A02_Rd4_6nM_C22 (antibody, V domains shown)
VH: B1 VH with P33A, S35N, I51V, G52L, G53D, L58T, P59Y, D103T, S104P
VL: B1 VL with S94V
notes: IgG
B30: A02_Rd4_6nM_C26 (antibody, V domains shown)
VH: B1 VH with P33A, S35N, G52S, G53D, L58T, P59Y, D103S, S104L
VL: B1 VL with S32L, S94V
notes: IgG

target: Human BCMA (human) (UniProt Q02223); experiment: SPR, IgG on chip, huBCMA analyte

Row | Binder | Kd | koff | kon
1 | B1 | 0.009 nM | 0.000115 s⁻¹ | 1.34e+07 M⁻¹ s⁻¹
2 | B2 | 2.13 nM | 0.0497 s⁻¹ | 2.33e+07 M⁻¹ s⁻¹
3 | B3 | 0.065 nM | 0.00018 s⁻¹ | 2.75e+06 M⁻¹ s⁻¹
4 | B4 | 0.128 nM | 0.000189 s⁻¹ | 1.48e+06 M⁻¹ s⁻¹
5 | B5 | 0.129 nM | 0.000296 s⁻¹ | 2.3e+06 M⁻¹ s⁻¹
6 | B6 | 0.043 nM | 0.000182 s⁻¹ | 4.27e+06 M⁻¹ s⁻¹
7 | B7 | 0.066 nM | 0.000566 s⁻¹ | 8.53e+06 M⁻¹ s⁻¹
8 | B8 | 0.188 nM | 0.000738 s⁻¹ | 3.92e+06 M⁻¹ s⁻¹
9 | B9 | 0.407 nM | 0.0063 s⁻¹ | 1.55e+07 M⁻¹ s⁻¹
10 | B10 | 0.099 nM | 0.000308 s⁻¹ | 3.1e+06 M⁻¹ s⁻¹
11 | B11 | 0.061 nM | 0.000443 s⁻¹ | 7.26e+06 M⁻¹ s⁻¹
12 | B12 | 0.545 nM | 0.00825 s⁻¹ | 1.51e+07 M⁻¹ s⁻¹
13 | B13 | 0.303 nM | 0.00374 s⁻¹ | 1.23e+07 M⁻¹ s⁻¹
14 | B14 | 0.018 nM | 9.75e-05 s⁻¹ | 5.5e+06 M⁻¹ s⁻¹
15 | B15 | 0.847 nM | 0.0154 s⁻¹ | 1.82e+07 M⁻¹ s⁻¹
16 | B16 | 0.049 nM | 0.000148 s⁻¹ | 3e+06 M⁻¹ s⁻¹
17 | B17 | 0.193 nM | 0.000915 s⁻¹ | 4.74e+06 M⁻¹ s⁻¹
18 | B18 | 0.467 nM | 0.00348 s⁻¹ | 7.47e+06 M⁻¹ s⁻¹
19 | B19 | 0.162 nM | 0.00212 s⁻¹ | 1.31e+07 M⁻¹ s⁻¹
20 | B20 | 0.075 nM | 0.000126 s⁻¹ | 1.69e+06 M⁻¹ s⁻¹
21 | B21 | 0.021 nM | 7.37e-05 s⁻¹ | 3.49e+06 M⁻¹ s⁻¹
22 | B22 | 0.07 nM | 0.000315 s⁻¹ | 4.51e+06 M⁻¹ s⁻¹
23 | B23 | 0.135 nM | 0.000603 s⁻¹ | 4.47e+06 M⁻¹ s⁻¹
24 | B24 | 0.811 nM | 0.0128 s⁻¹ | 1.58e+07 M⁻¹ s⁻¹
25 | B25 | 0.964 nM | 0.015 s⁻¹ | 1.55e+07 M⁻¹ s⁻¹
26 | B26 | 0.459 nM | 0.00276 s⁻¹ | 6.02e+06 M⁻¹ s⁻¹
27 | B27 | 0.535 nM | 0.00649 s⁻¹ | 1.21e+07 M⁻¹ s⁻¹
28 | B28 | 0.021 nM | 0.000255 s⁻¹ | 1.22e+07 M⁻¹ s⁻¹
29 | B29 | 0.054 nM | 0.000182 s⁻¹ | 3.38e+06 M⁻¹ s⁻¹
30 | B30 | 0.033 nM | 0.000139 s⁻¹ | 4.26e+06 M⁻¹ s⁻¹

target: T1, cynomolgus monkey BCMA (cynomolgus monkey, UniProt A0A2K5UD97 1-53); experiment: SPR, IgG on chip, cyBCMA analyte
T1 construct: Soluble analyte in SPR; construct not described; also called cyBCMA; Cyno BCMA
T1 sequence (A0A2K5UD97 entry or part of it): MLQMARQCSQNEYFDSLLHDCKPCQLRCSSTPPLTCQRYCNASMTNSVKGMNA

Row | Binder | Kd | koff | kon
31 | B1 | 0.084 nM | 0.000304 s⁻¹ | 3.63e+06 M⁻¹ s⁻¹
32 | B2 | 5.16 nM | 0.0327 s⁻¹ | 6.34e+06 M⁻¹ s⁻¹
33 | B3 | 0.22 nM | 0.00033 s⁻¹ | 1.5e+06 M⁻¹ s⁻¹
34 | B4 | 1.14 nM | 0.000786 s⁻¹ | 691000 M⁻¹ s⁻¹
35 | B5 | 1.84 nM | 0.00163 s⁻¹ | 883000 M⁻¹ s⁻¹
36 | B6 | 0.201 nM | 0.000426 s⁻¹ | 2.12e+06 M⁻¹ s⁻¹
37 | B7 | 0.56 nM | 0.00128 s⁻¹ | 2.29e+06 M⁻¹ s⁻¹
38 | B8 | 5.07 nM | 0.0113 s⁻¹ | 2.23e+06 M⁻¹ s⁻¹
39 | B9 | 0.939 nM | 0.00464 s⁻¹ | 4.95e+06 M⁻¹ s⁻¹
40 | B10 | 0.95 nM | 0.00129 s⁻¹ | 1.36e+06 M⁻¹ s⁻¹
41 | B11 | 0.941 nM | 0.00256 s⁻¹ | 2.71e+06 M⁻¹ s⁻¹
42 | B12 | 1.77 nM | 0.00936 s⁻¹ | 5.28e+06 M⁻¹ s⁻¹
43 | B13 | 0.852 nM | 0.00285 s⁻¹ | 3.34e+06 M⁻¹ s⁻¹
44 | B14 | 0.082 nM | 0.000174 s⁻¹ | 2.13e+06 M⁻¹ s⁻¹
45 | B15 | 1.95 nM | 0.0121 s⁻¹ | 6.22e+06 M⁻¹ s⁻¹
46 | B16 | 0.26 nM | 0.000661 s⁻¹ | 2.54e+06 M⁻¹ s⁻¹
47 | B17 | 0.655 nM | 0.00157 s⁻¹ | 2.39e+06 M⁻¹ s⁻¹
48 | B18 | 0.281 nM | 0.000891 s⁻¹ | 3.17e+06 M⁻¹ s⁻¹
49 | B19 | 0.493 nM | 0.00219 s⁻¹ | 4.44e+06 M⁻¹ s⁻¹
50 | B20 | 0.158 nM | 0.000185 s⁻¹ | 1.17e+06 M⁻¹ s⁻¹
51 | B21 | 0.058 nM | 0.000105 s⁻¹ | 1.81e+06 M⁻¹ s⁻¹
52 | B22 | 0.472 nM | 0.000898 s⁻¹ | 1.9e+06 M⁻¹ s⁻¹
53 | B23 | 0.381 nM | 0.000831 s⁻¹ | 2.18e+06 M⁻¹ s⁻¹
54 | B24 | 2.33 nM | 0.00868 s⁻¹ | 3.73e+06 M⁻¹ s⁻¹
55 | B25 | 2.53 nM | 0.0119 s⁻¹ | 4.72e+06 M⁻¹ s⁻¹
56 | B26 | 1.74 nM | 0.00625 s⁻¹ | 3.6e+06 M⁻¹ s⁻¹
57 | B27 | 0.82 nM | 0.0037 s⁻¹ | 4.51e+06 M⁻¹ s⁻¹
58 | B28 | 0.157 nM | 0.000414 s⁻¹ | 2.63e+06 M⁻¹ s⁻¹
59 | B29 | 0.176 nM | 0.000324 s⁻¹ | 1.84e+06 M⁻¹ s⁻¹
60 | B30 | 0.203 nM | 0.000448 s⁻¹ | 2.21e+06 M⁻¹ s⁻¹
